Difference in OD values between zero and 0.3 ng/ml competing peptide data for one molecule are collected here from patent publication US20200225235A1.

This assay concerns the target anti-GASP-1 polyclonal antibody raised against a GASP-1 fragment consisting of … (SEQ ID NO: 2). Kind of assay: competitive ELISA: free peptide against plate-bound BSA-GASP-1 conjugate for the biotinylated antibody.

Consider EEASPEAVAGVGFESK [GASP-1 peptide … (SEQ ID NO: 2)], for which the difference in OD values between zero and 0.3 ng/ml competing peptide is 1.1 OD (450 nm).
